These results are taken from publication PMC3380378.

Assay in all cases: purified protein
Data set [1] has as its system O=C(O)C(=O)C[C@@H](O)[C@@H](O)[C@H](O)[C@H](O)COP(=O)(O)O. To be noted: Mg2+; pH 10.0.
Substrate in data set [2]: Nc1ccn([C@@H]2O[C@H](COP(=O)(O)OP(=O)(O)OP(=O)(O)O)[C@@H](O)[C@H]2O)c(=O)n1
Type of data set: biochemical, Escherichia coli. To be noted: Mg2+; pH 9.3.

Substrate in data set [3]: O=C(O)C(=O)C[C@@H](O)[C@@H](O)[C@H](O)[C@H](O)CO
The format is biochemical, Escherichia coli. To be noted: Mg2+; pH 9.3.

The Km is the concentration of substrate that gives half-maximal velocity. Take “3-deoxy-D-manno-octulosonic acid 8-phosphate phosphatase (KdsC) (Escherichia coli K-12)”: in data set [1], the Km stood at 370 ± 10 µM.

B1: 3-deoxy-D-manno-octulosonate cytidylyltransferase (KdsB, CMP-KDO synthetase) (Escherichia coli K-12) (protein)
chain: MSFVVIIPARYASTRLPGKPLVDINGKPMIVHVLERARESGAERIIVATDHEDVARAVEAAGGEVCMTRADHQSGTERLAEVVEKCAFSDDTVIVNVQGDEPMIPATIIRQVADNLAQRQVGMATLAVPIHNAEEAFNPNAVKVVLDAEGYALYFSRATIPWDRDRFAEGLETVGDNFLRHLGIYGYRAGFIRRYVNWQPSPLEHIEMLEQLRVLWYGEKIHVAVAQEVPGTGVDTPEDLERVRAEMR
With B1, the Km in the data set “purified protein [2]” came to 330 ± 40 µM; in “purified protein [3]” it was 280 ± 20 µM.
